Results on 2 molecules are retold here after US20240209361A1 (Johns Hopkins, published 2024).

In assay [1] the target is T1, integrin α5β1 on patient-derived glioblastoma stem-like cells (GBM-CCC-001, GBM-CCC-002, GBM-CCC-003) (human (patient-derived cells), UniProt P08648 42-1049; P05556 21-798).
T1 construct: whole, on cells; Endogenous heterodimer on cells; The cells were not engineered, so other surface proteins were also present; also called α5β1 integrin; integrin α5β1 polypeptide
In words: flow cytometry of calcein-loaded liposomes (150 µM lipid) on GBM-CCC-001, GBM-CCC-002 and GBM-CCC-003 cells, 48 hours at 37° C. The method, then: (§1) GSC neurospheres (GBM-CCC-001, GBM-CCC-002 and GBM-CCC-003) were collected into 15 mL Falcon tubes, pelleted down, and dissociated into single cells. About 200,000 cells were transferred into Eppendorf tubes in neurosphere culture media and treated with 2 mM calcein loaded PR_b liposomes or non-targeted liposomes at a lipid concentration of 150 μM for 48 hours at 37° C. on a shaker. After the incubation period, cells were pelleted down and washed twice with PBS. Flow cytometric analysis was carried out immediately using BD FACSCanto. Non-treated cells that received only media served as a control. Cell autofluorescence was subtracted from all measurements. For the blocking experiment, the same procedure was followed, except cells were preincubated with 1 mg/mL free PR_b peptide in media for 1 hour at 37° C. prior to addition of the PR_b liposomes and incubation for an additional 1 hour at 37° C.

The target in assay [2] is T1, integrin α5β1 on patient-derived …. As to the kind of experiment: flow cytometry blocking experiment on GBM-CCC-001 cells; 1 mg/mL free PR_b peptide for 1 hour, then PR_b liposomes for 1 hour at 37° C. As for the experimental part: as §1
On the technique in general: In flow cytometry, cells or beads pass a laser one at a time.

No end group written: not given here. (C16)2‑Glu‑C2 = not defined here

T1 sequence (P08648 42-1049, chain 1 of 2): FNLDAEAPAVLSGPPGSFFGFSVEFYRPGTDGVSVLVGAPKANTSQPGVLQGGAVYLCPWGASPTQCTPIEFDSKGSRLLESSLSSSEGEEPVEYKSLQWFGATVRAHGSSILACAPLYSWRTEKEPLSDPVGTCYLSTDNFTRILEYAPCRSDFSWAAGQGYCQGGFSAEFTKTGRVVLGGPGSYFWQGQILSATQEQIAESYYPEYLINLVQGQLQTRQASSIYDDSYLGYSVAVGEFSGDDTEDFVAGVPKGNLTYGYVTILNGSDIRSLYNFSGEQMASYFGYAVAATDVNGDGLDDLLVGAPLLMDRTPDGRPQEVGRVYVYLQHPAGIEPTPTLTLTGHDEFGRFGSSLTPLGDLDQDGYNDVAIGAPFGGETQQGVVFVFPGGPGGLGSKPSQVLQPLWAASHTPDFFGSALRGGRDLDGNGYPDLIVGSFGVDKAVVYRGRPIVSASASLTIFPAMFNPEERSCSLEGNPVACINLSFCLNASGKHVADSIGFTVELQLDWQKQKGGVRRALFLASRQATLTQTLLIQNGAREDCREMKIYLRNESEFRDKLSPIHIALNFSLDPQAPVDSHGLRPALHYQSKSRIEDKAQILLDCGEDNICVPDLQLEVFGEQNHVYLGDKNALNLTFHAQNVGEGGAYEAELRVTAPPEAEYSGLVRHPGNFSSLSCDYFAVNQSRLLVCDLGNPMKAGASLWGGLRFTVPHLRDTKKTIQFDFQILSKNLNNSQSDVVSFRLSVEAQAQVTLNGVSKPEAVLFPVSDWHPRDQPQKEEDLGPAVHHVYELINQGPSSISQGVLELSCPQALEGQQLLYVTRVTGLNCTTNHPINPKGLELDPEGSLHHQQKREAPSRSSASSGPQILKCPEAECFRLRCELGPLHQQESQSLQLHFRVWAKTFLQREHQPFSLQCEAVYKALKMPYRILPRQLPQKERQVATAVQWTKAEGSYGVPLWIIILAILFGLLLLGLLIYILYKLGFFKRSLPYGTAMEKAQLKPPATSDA
T1 sequence (P05556 21-798, chain 2 of 2): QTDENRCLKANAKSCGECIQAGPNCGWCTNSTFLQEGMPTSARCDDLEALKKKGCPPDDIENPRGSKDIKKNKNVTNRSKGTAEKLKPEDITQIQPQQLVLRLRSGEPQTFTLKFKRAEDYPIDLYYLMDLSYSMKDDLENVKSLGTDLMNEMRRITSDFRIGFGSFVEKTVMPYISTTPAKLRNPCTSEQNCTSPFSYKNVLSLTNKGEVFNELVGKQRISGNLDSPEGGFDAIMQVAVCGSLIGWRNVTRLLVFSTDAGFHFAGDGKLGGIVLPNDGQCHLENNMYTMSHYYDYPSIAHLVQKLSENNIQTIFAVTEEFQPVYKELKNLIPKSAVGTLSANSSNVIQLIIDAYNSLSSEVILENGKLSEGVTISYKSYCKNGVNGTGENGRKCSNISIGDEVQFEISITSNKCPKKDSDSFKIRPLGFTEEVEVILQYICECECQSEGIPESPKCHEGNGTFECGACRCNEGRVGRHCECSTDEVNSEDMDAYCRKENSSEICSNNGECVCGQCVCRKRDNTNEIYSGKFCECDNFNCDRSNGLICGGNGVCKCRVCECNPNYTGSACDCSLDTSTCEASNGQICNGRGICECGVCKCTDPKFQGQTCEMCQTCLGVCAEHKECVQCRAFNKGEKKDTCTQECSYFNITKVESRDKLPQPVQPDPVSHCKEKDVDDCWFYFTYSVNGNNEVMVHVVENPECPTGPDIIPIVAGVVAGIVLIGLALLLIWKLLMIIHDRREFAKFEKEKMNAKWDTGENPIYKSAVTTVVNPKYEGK

Turning to {(C16)2‑Glu‑C2}-KSSPHSRNSGSGSGSGSGRGDSP (reading uncertain; also: printed as (C16)2-Glu-C2-KSSPHSRNSGSGSGSGSGRGDSP, Synthetic fibronectin-mimetic peptide), the binding result in assay [1] is “binds”.

With KSSPHSRNSGSGSGSGSGRGDSP [free PR_b peptide], in assay [2], the binding result is recorded as “binds”.
